According to patent US11994512B2, “Single-cell genomic methods to generate ex vivo cell systems that recapitulate in vivo biology with improved fidelity” (Massachusetts Institute of Technology, priority 2018, dated 2024):

System: intracellular proteome of ENR+CD and ENR organoids
Test: LC-MS/MS TMT proteomics of ENR+CD versus ENR organoids
Format: cell-based, C57BL/6 mice
Settings: for Average logFC / M1-1 Log2 Median Normalized / M1-2 Log2 Median Normalized / M2-1 Log2 Median Normalized / M2-2 Log2 Median Normalized: protein abundance, ENR+CD versus ENR organoids; for Average logFC: aggregate of the four sample pairs; for M1-1 Log2 Median Normalized: replicate M1-1; for M1-1 Log2 Median Normalized / M1-2 Log2 Median Normalized / M2-1 Log2 Median Normalized / M2-2 Log2 Median Normalized: log2 ratio; for M1-2 Log2 Median Normalized: replicate M1-2; for M2-1 Log2 Median Normalized: replicate M2-1; for M2-2 Log2 Median Normalized: replicate M2-2; for change: up = enriched in ENR+CD, down = enriched in ENR, FDR<0.05 and log fold change cut-off

Molecule	Average logFC	M1-1 Log2 Median Normalized	M1-2 Log2 Median Normalized	M2-1 Log2 Median Normalized	M2-2 Log2 Median Normalized	change
Q3UGF1 (protein, UniProt Q3UGF1 1-1341, looked up, full-length) MKRVFSLLEKSWLGAPIQFAWQKSSGNYLAVTGADYIVKIFDRHGQKRSEISLPGNCVTMDWDKDGDILAVIAEKSSCIYLWDANTNKTSQLDNGMRDQMSFLLWSKIGSFLAVGTIKGNLLIYNHQTSRKIPVLGKHTKKITCGCWNSENLLALGGEDKMITVSNQEGDTIRQTPVKSEPSDIKFSMSKTDERISSAENTISAVVGKKMLFLFHLNEPDNPVDLEFQQAYGNIVCYSWYGDGYIMIGFSRGTFLAISTHFPEVGQEIFKARDHKDNLTSVALSQTLNKAATCGDNCIKIHDLTELRDMYAIINLDDENKGLGTLSWTDDGQLLALSTQRGSLHVFLTKLPILGDACHTRIAYLTSLLEVTVANLIEGEPPITVSVDVEPTFVAVGLYHLAVGMNNRAWFYVLGENVVKKLKDVEYLGTVASICLHSDYAAALFEGKIQLHLIENEMLDAQEERETRLFPAVDDKCRILCHALTSDFLIYGTDTGIIHYFFIEDWQFVNDYRHPVGVKKLFPDPNGTRLVFIDEKSDGFVYCPVNDATYEIPDFSPTIKGVLWENWPMDKGVFIAYDDDKVYTYAFHKDTIQGSKVILAGSTKLPFSHKPLLLYNGELTCQTQSGKINSIYLSTHSFLGSMKDTEPTDLRQMLTQTLLLKRFSDAWDICKMLNDRTSWSELAKACLHHMEVEFAIRVSRTMGDVGTVMSLEQIKGIEDYNLLAGHLAMFTNDFNLAQDLYLASNCPVAALEMRRDLQHWDSALQLAKRLAPDQIPFISKEYAIQLEFTGDYVNALAHYEKGITGDNKEHDEVCLAGVAQMSIRMGDIRRGANQALKHPSRVLKRDCGAILENMKQFSEAAQLYEKGQYYDRAASVYIRCKNWAKVGELLPHVSSPKIHLQYAKAKEADGRYKEAVVAYENAKQWNSVIRIYLDHLNNPEKAVSIVRETQSLDGAKMVARFFLQLGDYGSAIQFLVLSKCNNEAFTLAQQHNKMEIYADIIGAEDTTNEDYQSIALYFEGEKRHFQAGKFFLLCGQYSRALKHFLKCPSSEDNVAIEMAIETVGQAKDELLTNQLIDHLMGESDGMPKDAKYLFRLYMALKQYREAARTAIIIAREEQSAGNYRNAHDVLFSMYAELKAQKIKIPSEMATNLMILHSYILVKIHVKSGDHMKGARMLIRVANNISKFPSHIVPILTSTVIECHRAGLKNSAFSFAAMLMRPEYRNKIDAKYKKKIEAMVRRPDTSETEEATTPCPFCQFLLPECELLCPGCKNNIPYCIATGRHMLKDDWTMCPHCGFPALYSEFKILLNSESTCPMCSERLNSSQLKKITDCSQYLRTEME	−1.153	−0.199	−0.895	−1.3115	−2.206	down
Q3UR50 (protein, UniProt Q3UR50 1-1248, looked up, full-length) MPGLYCPTSWTPLPLTDSCVRAYAKGPCLSLRARLTYHNPQPQPVEGVFVYPLAEAEVVSGFEAEAAGRRVSFQLHSRRRSQAACCRALGPGLGTSTPRRCAQGHLVLNLAQARSTLVLPTGLVAAAGTMTVTLCSSRELPSRPDGVMHVALPTVFTPLAQPNLPGSPRSPGLCDDSPTSCFGVGSPEEERPTWEQPTATPDVFSGPARCPAPYTFSFEMLVTGPCLLAGLESPSHALRADALPHASSAATIRVTLAEGHQCDRALEILLHPSEPHQPHLMLETGSLSSAEYEAQVRARHDFQRLQQRDSGGERQVWFLQRRFHKDILLNPVLVLNFCPDLSSKPGHLNAATRELLFLLDGSGAGHKDAIVLAVKSLPAQTLVNLAIFGTLVQPLFPESRPCSDDTVQLICESIETLQTVNGPPDMLAVLDWALGQPQHRAYPRQMFLITAASPTAATTHQALEFMRWHRGAARCFSFALAPACRQLLHDLSVLSRGQAYFLRPGERLQPKLVQALRKALEPALSDISVDWFVPDAVEALLTPREIPALYPGDQLLGYCSLFRVDGFRSHALGGQEPGWQSLAGSVFPSPEEVLSATSPGTEPTHTTEPLGTGTVSAELSSPWAVGDSEQSMEALTDPVMDPGPNPSSDTAIWRRIFQSSYIREQYVLTHCSASPEPGPGSTCSSESPGSQGPGSPSGSRPLDPPSQQGCRSLAWVEPAGSRSCPLPVPPPSPFKVGAMSAEVLGRRQRAALAGRSLSSPSGRANPVPGRARHPSLDAIPDGLGPEPGQQLGQGLDDSGNLLSPAPLDWDMLMEPSFLFKPVPSSAESAPPAECLPPQAPRCHVVIRALCGEQPMCWEVGVGLEELWGPGDGSQPESLPMREAAWDQALHRLTAASVVQDNEQLALRGRAETRAEQGRVRRSWLRAIQTSKVSSAPSCFTCPVAVDATTREVLPGALQVWSSDPAELSGMSASQDQLAAAPLSTAVHSKGHQGGCSAGAWDLDLNDNSKSALGEPISPTGDHHGLPHQPPASSRLSLGRHRRLCSSNKGQTHENSNDGSNHDYLPLVRLQEAPGSFRLDEPFCAAVCIPQERLCRASPFAAHRASLSPTSASSPWAFLSPGIGQGDSATASCSQSPSSGSEGPGQVDSGRGSDTEASEGMERQDSSDLRGRTWATAVALAWLEHRCAAAFGEWELTASKADCWLRAQHLPDGLDLTALKAAARGLFLLLRHWDQNLQLHLLCYSPSNV	1.46	1.678	1.171	1.6125	1.377	up
Q3UQ28 (protein, UniProt Q3UQ28 1-1475, looked up, full-length) MAVRPTRRCLLALLLCFAWWAMAVVASKQGAGCPSRCLCFRTTVRCMHLLLEAVPAVAPQTSILDLRFNRIREIQPGAFRRLRSLNTLLLNNNQIKKIPNGAFEDLENLKYLYLYKNEIQSIDRQAFKGLASLEQLYLHFNQIETLDPESFQHLPKLERLFLHNNRITHLVPGTFSQLESMKRLRLDSNALHCDCEILWLADLLKTYAQSGNAQAAATCEYPRRIQGRSVATITPEELNCERPRITSEPQDADVTSGNTVYFTCRAEGNPKPEIIWLRNNNELSMKTDSRLNLLDDGTLMIQNTQEADEGVYQCMAKNVAGEAKTQEVTLRYLGSPARPTFVIQPQNTEVLVGESVTLECSATGHPLPQITWTRGDRTPLPIDPRVNITPSGGLYIQNVAQSDSGEYTCFASNSVDSIHATAFIIVQALPQFTVTPQSRVVIEGQTVDFQCAAKGHPQPVIAWTKGGSQLSVDRRHLVLSSGTLRISGVALHDQGQYECQAVNIIGSQKVVAHLTVQPRVTPVFASIPSDMTVEVGTNVQLPCSSQGEPEPAITWNKDGVQVTESGKFHISPEGFLTINDVGTADAGRYECVARNTIGYASVSMVLSVNVPDVSRNGDPYVATSIVEAIATVDRAINSTRTHLFDSRPRSPNDLLALFRYPRDPYTVGQARAGEIFERTLQLIQEHVQHGLMVDLNGTSYHYNDLVSPQYLSLIANLSGCTAHRRVNNCSDMCFHQKYRTHDGTCNNLQHPMWGASLTAFERLLKAVYENGFNTPRGINSQRQYNGHVLPMPRLVSTTLIGTEVITPDEQFTHMLMQWGQFLDHDLDSTVVALSQARFSDGQHCSSVCSNDPPCFSVMIPPNDPRVRSGARCMFFVRSSPVCGSGMTSLLMNSVYPREQINQLTSYIDASNVYGSTDHEARSIRDLASHRGLLRQGIVQRSGKPLLPFATGPPTECMRDENESPIPCFLAGDHRANEQLGLTSMHTLWFREHNRIAAELLKLNPHWDGDTVYHETRKIVGAEIQHITYRHWLPKILGEVGMKMLGEYRGYDPSVNAGIFNAFATAAFRFGHTLINPLLYRLDENFEPIPQGHVPLHKAFFSPFRIVNEGGIDPLLRGLFGVAGKMRIPSQLLNTELTERLFSMAHTVALDLAAINIQRGRDHGIPPYHDYRVYCNLSAAYTFEDLKNEIKSPVIREKLQRLYGSTLNIDLFPALMVEDLVPGSRLGPTLMCLLSTQFRRLRDGDRLWYENPGVFSPAQLTQLKQTSLARILCDNSDNITRVQQDVFRVAEFPHGYSSCEDIPRVDLRVWQDCCEDCRTRGQFNAFSYHFRGRRSLEFSYEDDKPTKRARWRKALSVKHGKHLSNATSATHEHLEGPATNDLKEFVLEMQKIITDLRKQINSLESRLSTTECVDDSGESHGGNTKWKKDPCTVCECKNGQITCFVEACQPAACPQPVKVEGACCPVCLKNTAEEKP	1.294	1.157	1.486	1.3875	1.146	up
Q3UHD3 (protein, UniProt Q3UHD3 1-1353, looked up, full-length) MSVPLAPKKSCFGQLRDHREGAKNNNESILRTGDTNANQIMLEVSSSCDEAKSRDLDDELGNSNLSRPQYHSHFQKEPLHLQGFGKGSQAGSTSQRESQASLTVHRQLSEEHAVKRGALQAPQCVQGPSLSSWRNAVGQASPEASAKKDAEIPRHIPKDKLAKTLDNEELKRASSCSAAAGSVPPTDLQPVQLDTLGPQDHVPARGEGPQRTPASHSPGKGFSPGEGTSEGNSVYLPKPSTSEAKGSSPSDTKMEGPHGLDVYNERITHAELTPSSASASKENPGLRHPEVCLGQGTGKSKVELKSVQPRNEEGLTSAQAQGPGCHEERSMSPVERQELLEKAYREATSQGNSSHRQLGVRRGSSLEEMTGVSAGVEGSQQATPTLSAAPAGEAGTRLTGKMSAGVGRMARETASGQTAPDVGQAAPVRRDPTESVPSEVSGEERRLGSGNSGSTKLLASGPSAGGSRTDTSGLLSPRGSNLEARKGKEMVAENRNLLENAAQTDNTPAGVDSAFSTPAPLLHPETTVNSSHHPTPPGSSSQELGVFSGDTGSPSVASPPTDGGQVLNTSPKVPDRTTCSSGIPKPPTHPKDTPSSQEAREKLETEKMEERAEAKPILMPKPKHVRPKIITYIRRNPQALSQGDASLVPVGLPYAPPTCGMPLPQEEKAASRDLQPSANMYEKLKPDLQKPRVFPSGLMVSGIKPPAHHFSQMSEKFLQEVADHPGKEEFCSPPYTHYEVPPTFYRSAMLLKPQLGLGAMSRLPSTKSRILIASQRSSASAIHPPGSLTTAASFYGSDPSDLKKASNSNAAKASLPKSGLRPPGYSRLPAAKLAAFGFVRSSSISAVPSSQSLDSVQPEQSRPVTRSTFGNEEQAPLKQALPSKDTPKGAGRAAPASSSNATTPRRSLLPAPKSTSTPAGAKKELQKDPEAKKPAVSSPKRTASAATKPHSPGYPKQRTSAPRNEFPPKPDLQAREAERQLAQRLRDRCEWQARQLGLARRELKKAIQGFDALAVSTKHFFGKSERALAKEKELSIELANIRDEVAFNTAKCEKLQKEKETLERRFEEELRRLGWQQQAEVQELQERLQQQFQAESARLQAEHQDQLLRMRCQHQEQVEDITASHEAALLEMENNHTVAITILQDDHDHKVQELMSTHEFEKKELEENFEKLRLTLQDQVDTLTFQSQSLRDRARRFEEALRKTTEEQLEIALAPYQHLEEDMQSLKQVLEMKNQQIHLQEKKIIELEKLVEKNIILEERIQVLQQQNEDLKARIDQNTVVTRQLSEENANLQEYVEKETQEKKRLSRTNEELLWKLQTGDPTSPIKLSPTSPVYRGSSSGPSSPARVSTTPR	1.47	1.347	0.087	1.7985	2.649	up
